Among the data in article PMC8914023 are Kd values, retold here.

Assay [1] concerns the target F-actin (rabbit muscle actin filaments) (rabbit) (UniProt P68135). Put plainly: SPR.
Assay [2] concerns the target EhP3 (Entamoeba histolytica 14-3-3 protein isoform 3) (Entamoeba histolytica). The experiment in a line: SPR; Autolab ESPIRIT; EhP3 immobilised; EhActo flowed at increasing concentrations; 10 mM HEPES, 0.2 mM calcium acetate, 0.005% Triton-X100; 25°C.

Chain of EhP3 (Entamoeba histolytica 14-3-3 protein isoform 3) (Entamoeba histolytica) (C4M0F4 whole entry, canonical isoform): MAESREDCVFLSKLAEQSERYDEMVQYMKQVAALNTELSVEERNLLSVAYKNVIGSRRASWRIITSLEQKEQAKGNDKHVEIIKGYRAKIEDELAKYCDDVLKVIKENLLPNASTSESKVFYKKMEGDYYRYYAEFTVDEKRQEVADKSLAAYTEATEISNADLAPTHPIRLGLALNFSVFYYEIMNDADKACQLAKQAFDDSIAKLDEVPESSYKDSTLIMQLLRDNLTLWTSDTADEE

In the case of “Entamoeba histolytica actophorin (EhActo) (from UniProt C4LVG4 1-138) (natural protein)”, the values for the Kd in assay [1] and in assay [2] were 249 nM and 1000 nM, respectively.

The term Kd denotes the concentration at which binding is half-saturated.
